Substitutions are numbered along the chain they refer to. Numbers in names are those of the source.
T1: CobB (Escherichia coli, UniProt P75960)
T1 sequence (P75960 1-279): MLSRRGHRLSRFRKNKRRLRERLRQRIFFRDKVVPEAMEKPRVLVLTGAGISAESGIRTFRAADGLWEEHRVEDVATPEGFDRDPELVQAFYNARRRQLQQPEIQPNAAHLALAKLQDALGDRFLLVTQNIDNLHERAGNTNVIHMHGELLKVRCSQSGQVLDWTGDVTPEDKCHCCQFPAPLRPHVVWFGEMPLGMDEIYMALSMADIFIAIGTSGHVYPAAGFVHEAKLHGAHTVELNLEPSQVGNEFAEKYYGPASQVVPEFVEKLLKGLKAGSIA

B1: PncB^K381Q (protein, UniProt P18133 2-400, looked up, variant K381Q)
Nicotinate …: TQFASPVLHSLLDTDAYKLHMQQAVFHHYYDVHVAAEFRCRGDDLLGIYADAIREQVQAMQHLRLQDDEYQWLSALPFFKADYLNWLREFRFNPEQVTVSNDNGKLDIRLSGPWREVILWEVPLLAVISEMVHRYRSPQADVAQALDTLESKLVDFSALTAGLDMSRFHLMDFGTRRRFSREVQETIVKRLQQESWFVGTSNYDLARRLSLTPMGTQAHEWFQAHQQISPDLANSQRAALAAWLEEYPDQLGIALTDCITMDAFLRDFGVEFASRYQGLRHDSGDPVEWGEKAIAHYEKLGIDPQSKTLVFSDNLDLRKAVELYRHFSSRVQLSFGIGTRLTCDIPQVKPLNIVIKLVECNGKPVAKLSDSPGKTICHDQAFVRALRKAFDLPHIKKAS
B2: PncB^K381R (protein, UniProt P18133 2-400, looked up, variant K381R)
Nicotinate …: B1 Nicotinate … with Q380R
B3: PncB: nicotinate phosphoribosyltransferase, wild type (protein, UniProt P18133 2-400, looked up)
Nicotinate …: B1 Nicotinate … with Q380K

Columns and labels:
CobB = biological target: T1, CobB; conditions: 10 mM NAM, 37 °C, 2 h; result in words
YiaC = experiment: ITC affinity of recombinant YiaC with acyl-CoA; type: binding, E. coli; conditions: for binding (Bin): result in words
Method: This method was described previously. […] The volume of the first injection was 0.5 μl of 500 μM actyl-CoA (or actylated peptides), and the following 18 injections were 2.0 μl. The binding isotherm was fit with the Origin 8.0 software (OriginLab). Each group had three biological repetitions.

PncB = experiment: In vitro assay for PncB activity; type: biochemical, E. coli; conditions: for enzymatic activity vs wild type: in vitro, result in words
Method: The activity of purified PncB, PncB^K381Q, and PncB^K381R were measured as described. In detail, the purified proteins were added in the reaction buffer [50 mM Tris-HCl, 10 mM MgCl2, 2.5 mM dithiothreitol, 1 mM ATP, […] of bovine serum albumin, 1 mM nicotinic acid and 1 mM 5-phosphoribosyl-1-pyrophosphate (pH 7.5)] at 37 °C for 2 h. The reactions were measured by HPLC-MS/MS to detect the production of […]. Separation was performed on a Vanquish UHPLC system (Thermo Fisher Scientific) with an ACQUITY UPLC BEH C18 column (100 × 2.1 mm, 1.7 μm). Mobile phase A was 0.1% formic acid in water. Mobile phase B was 0.1% formic acid in methanol. […] Injection volume was 2 μl. Nicotinic acid detection was performed on an Orbitrap Exploris 480 spectrometer (Thermo Fisher Scientific, Bremen, Germany) operated with ESI probe. Data were acquired under the following parameters: sheath gas ((N2), 35 Arb; aux gas (N2), 10 Arb; spray voltage, 3500 V (positive mode); and in transfer tube temperature, 320 °C. An SIM was applied for data acquisition.

[1] = replicate 1, 37 °C, 2 h, HPLC-MS/MS

Row | Molecule | inhibition of CobB delactylation (CobB) | inhibition, deacetylation compared with delactylation (CobB) | Kd (YiaC; cell 50 μM YiaC titrated with 500 μM acyl-CoA, 37 °C (method), three biological repetitions) | binding (Bin) (YiaC) | enzymatic activity vs wild type (PncB) | Residual percentage of reaction (PncB; replicate 1, relative to C) | Determination of nicotinic acid (PncB; [1]) | Determination of nicotinic acid (PncB; replicate 2) | Residual percentage of reaction (PncB; replicate 2, relative to C) | Determination of nicotinic acid (PncB; replicate 3) | Residual percentage of reaction (PncB; replicate 3, relative to C)
1 | NC(=O)c1cccnc1 [NAM, nicotinamide, reference compound] | the delactylation reaction could be inhibited by nicotinamide (NAM) | more effective for deacetylation than delactylation | – | – | – | – | – | – | – | – | –
2 | CC(=O)SCCNC(=O)CCNC(=O)[C@H](O)C(C)(C)COP(=O)(O)OP(=O)(O)OC[C@H]1O[C@@H](n2cnc3c(N)ncnc32)[C@H](O)[C@@H]1OP(=O)(O)O [acetyl-CoA, Acetyl coenzyme A, reference compound] | – | – | 5.57 µM | Binding | – | – | – | – | – | – | –
3 | Succinyl coenzyme A [succinyl-CoA, reference compound] | – | – | – | no binding | – | – | – | – | – | – | –
4 | B1 | – | – | – | – | significantly decreased | 0.3998 | 117663852 | 149776081 | 0.4956 | 106239984 | 0.3796
5 | B2 | – | – | – | – | increased | 0.01962 | 5775041 | 6028387 | 0.01995 | 5793798 | 0.0207
6 | B3 | – | – | – | – | – | 0.08118 | 23891965 | 25485329 | 0.08433 | 18539215 | 0.06624
